Data reported in patent US6821947.

Biological target: human recombinant endorepellin tagged with His6, from 293-EBNA cells (human) (UniProt P98160)
Assay: cell-based or functional assay

Chain of UniProt P98160 (P98160 3687-4391 limits assumed): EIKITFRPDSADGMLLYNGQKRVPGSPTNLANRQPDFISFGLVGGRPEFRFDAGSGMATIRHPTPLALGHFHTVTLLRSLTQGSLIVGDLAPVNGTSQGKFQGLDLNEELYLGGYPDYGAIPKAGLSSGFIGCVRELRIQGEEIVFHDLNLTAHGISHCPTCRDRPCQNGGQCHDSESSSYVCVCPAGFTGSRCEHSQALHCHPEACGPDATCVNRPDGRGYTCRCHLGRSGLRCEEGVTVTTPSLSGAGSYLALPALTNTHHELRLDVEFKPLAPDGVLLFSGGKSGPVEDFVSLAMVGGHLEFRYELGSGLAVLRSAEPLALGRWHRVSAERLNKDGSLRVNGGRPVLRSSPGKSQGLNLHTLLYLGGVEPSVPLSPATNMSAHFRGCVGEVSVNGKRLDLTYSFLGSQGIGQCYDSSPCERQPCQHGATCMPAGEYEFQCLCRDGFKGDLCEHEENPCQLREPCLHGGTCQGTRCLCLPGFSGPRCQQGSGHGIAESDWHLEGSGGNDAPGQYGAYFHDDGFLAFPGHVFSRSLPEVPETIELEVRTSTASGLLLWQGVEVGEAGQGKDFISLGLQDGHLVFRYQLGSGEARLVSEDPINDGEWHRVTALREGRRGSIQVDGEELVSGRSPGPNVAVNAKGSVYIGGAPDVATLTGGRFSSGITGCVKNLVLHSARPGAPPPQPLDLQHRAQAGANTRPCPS

VEGF-induced HUVEC migration through fibrillar collagen (molar ratio of endostatin/endorepellin): 1
Substance: recombinant endostatin purified from Pichia pastoris yeast cells (Calbiochem-Novabiochem)
